Test results as given in paper PMC8978962.

Biological target: CitbHLH2-YFPN (citrus)

CitALMT promoter activity (LUC/REN, dual-luciferase assay in tobacco leaves) with the combination of CitMYB52 and CitbHLH2, against the empty vector SK set as 1: 9.8 fold
Substance: CitMYB52-YFPC (natural protein)
